From US20250034222A1 (MONASH UNIVERSITY, published 2025)

Target: the molecule itself
Assay: SEC

B1: Wild-type IL-38 (residues 3-152), untagged after TEV cleavage of the N-terminal His10 tag (ligand)
chain: SLPMARYYIIKYADQKALYTRDGQLLVGDPVADNCCAEKICILPNRGLARTKVPIFLGIQGGSRCLACVETEEGPSLQLEDVNIEELYKGGEEATRFTFFQSSSGSAFRLEAAAWPGWFLCGPAEPQQPVQLTKESEPSARTKFYFEQSW
notes: Uncut protein was removed for the Peak A pool; also called IL-38 (WT); WT (D51A) IL-38
  binding result: binds
